# Ends that are not written are not given here.
# Experiments:
# [1] = target: AVR1674 (LFG2 3F3:3H9:2C10:4B10); assay: biolayer interferometry (Octet), biotinylated peptide on streptavidin tips, LFG2:4B10 mAb at 500 nM
# [2] = target: AVR1674 (LFG2 3F3:3H9:2C10:4B10); assay: biolayer interferometry (Octet), biotinylated peptide on streptavidin tips, LFG2:4B10 mAb in solution, 1:1 Langmuir fit
# [3] = target: AVR1674 (LFG2 3F3:3H9:2C10:4B10); assay: biolayer interferometry (Octet), follow-up experiment, 4-point titration of mAb LFG2 against the peptide
# [4] = target: Bacillus anthracis lethal factor (recombinant LF) (Bacillus anthracis) (UniProt P15917); assay: immunoblot of denatured recombinant LF
# Sequence of UniProt P15917 (P15917 34-809 limits assumed): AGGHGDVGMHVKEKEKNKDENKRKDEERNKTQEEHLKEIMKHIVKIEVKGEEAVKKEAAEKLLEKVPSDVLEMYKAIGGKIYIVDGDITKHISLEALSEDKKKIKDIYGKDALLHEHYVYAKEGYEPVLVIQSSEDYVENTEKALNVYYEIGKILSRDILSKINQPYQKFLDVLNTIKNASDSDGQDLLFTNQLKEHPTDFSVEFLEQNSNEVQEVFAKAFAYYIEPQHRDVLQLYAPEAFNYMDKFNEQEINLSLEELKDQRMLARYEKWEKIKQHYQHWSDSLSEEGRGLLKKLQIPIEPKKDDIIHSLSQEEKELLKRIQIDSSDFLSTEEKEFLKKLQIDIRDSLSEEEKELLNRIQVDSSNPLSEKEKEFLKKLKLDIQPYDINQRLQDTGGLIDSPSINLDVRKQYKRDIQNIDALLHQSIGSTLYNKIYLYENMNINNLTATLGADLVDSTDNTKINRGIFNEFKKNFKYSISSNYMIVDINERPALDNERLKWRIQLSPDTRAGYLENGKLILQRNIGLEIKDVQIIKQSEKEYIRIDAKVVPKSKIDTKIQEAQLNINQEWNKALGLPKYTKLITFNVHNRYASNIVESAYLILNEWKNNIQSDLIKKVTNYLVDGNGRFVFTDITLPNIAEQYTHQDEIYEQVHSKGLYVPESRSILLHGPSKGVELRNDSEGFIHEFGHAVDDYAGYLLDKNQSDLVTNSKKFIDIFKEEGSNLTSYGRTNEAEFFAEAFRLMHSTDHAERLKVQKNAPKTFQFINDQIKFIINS
Binder,Response R [1] [nm],Kd [2] [nM],Kd [3] [nM],amount of LF detected by immunoblot [4] [ng]
TFKDEIGGGSK-biotin […-biotin (SEQ ID NO: 25)],4.84,13.9,9.97,–
THKDEIGGGSK-biotin […-biotin (SEQ ID NO: 36)],2.37,60,–,–
"AVR1674 (LFG2 3F3:3H9:2C10:4B10) (antibody, V domains shown) VH: EVQLQVSGAELVKPGASVRLSCKASGYTFTSYYIYWVKQRPGQGLEWIGDINPSDGDTDFNEKFKSKATLTVDKSSSTAYMQLSSLTSEDSAVYYCTRSRGGFAYWGQGTLVTVSA VL: SHGDQASISSRSSQSIVHSNGNTYLEWYLQKPAQSPKLLIFKVSNRFSGVPDRFSRSGSGTDFTLKISRVEAEDLGIYYCSQGSHVPWTFGGGTKL",–,–,–,< 30
TFQDEIGGGSK-biotin […-biotin (SEQ ID NO: 37)],1.34,34.4,–,–
TFKDEAGGGSK-biotin […-biotin (SEQ ID NO: 31)],5.29,16.4,–,–
TFKDAIGGGSK-biotin […-biotin (SEQ ID NO: 30)],1.01,24.5,–,–

# — patent US20160272698A1
